doi:10.1101/577437 (bioRxiv, 2019)

Molecular target: T1, RALA (residues 1-183) (UniProt P11233 1-183)
T1 sequence: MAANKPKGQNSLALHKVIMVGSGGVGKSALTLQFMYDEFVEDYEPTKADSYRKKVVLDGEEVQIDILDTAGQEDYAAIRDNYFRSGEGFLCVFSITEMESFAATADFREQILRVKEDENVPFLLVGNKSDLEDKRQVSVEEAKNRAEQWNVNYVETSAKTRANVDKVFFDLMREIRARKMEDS
Test: NMR titration

binding result: binds
B1: human RLIP76 RBD (residues 395-517) (domain or fragment)
chain: QAGIKEEIRRQEFLLNCLHRDLQGGIKDLSKEERLWEVQRILTALKRKLREAKRQECETKIAQEIASLSKEDVSKEEMNENEEVINILLAQENEILTEQEELLAMEQFLRRQIASEKEEIERL
